Legend:
[1] = biological target: T1, human cannabinoid receptor type 1 (CB1) (human, UniProt P21554 1-472); assay: flow cytometry, single point at 30 ug/mL antibody, signal on CHO-huCB-1 cells relative to CHO parental cells
T1 construct: DiscoverX cAMP Hunter CHO-K1 CNR1 Gi cells for cAMP and pERK assays; also called huCB1; huCB-1

[2] = biological target: T1, human cannabinoid receptor type 1 (CB1); assay: FACS, titration on CB1 over-expressing CHO cells
Description: (§1) Antibody binding was tested in a fluorescence activated cell sorting (FACS)-based assay for the ability of the mouse anti-CB1 antibodies to bind parental CHO cells, human CB-1 overexpressing CHO cells and mouse CB-1 overexpressing CHO cells to obtain binding curves and EC50 values. The three cell lines were harvested, washed and dispensed at 1×10⁵ cells per well of a v-bottomed 96-well polycarbonate FACS plates (Corning, Corning, N.Y., Cat. No. 3357) in 50 μl of FACS buffer (1×PBS/2 mM EDTA and 1% FBS (ThermoFisher Scientific, Anaheim, Calif.; Cat. No. 10438-026). Serial dilutions of the antibodies were prepared at 2× concentrations starting at 200 nM and serially diluted 3-fold. The titrated antibodies were added to the plates containing the three different cell lines (parental, human and mouse CB-1 CHO cells) and incubated at 4° C. for 1 hour. The plates were washed 3× with FACS buffer. […] None of the eight functional antibodies tested were mouse cross reactive (FIG. 3).

[3] = biological target: T2, mouse CB-1 (mouse, UniProt P47746 1-473); assay: flow cytometry on CHO-Mouse CB1 cells, 3-fold antibody titration from 200 nM
T2 construct: whole, on cells; also called moCB1; moCB1-CHO cells
T2 sequence (P47746 whole entry): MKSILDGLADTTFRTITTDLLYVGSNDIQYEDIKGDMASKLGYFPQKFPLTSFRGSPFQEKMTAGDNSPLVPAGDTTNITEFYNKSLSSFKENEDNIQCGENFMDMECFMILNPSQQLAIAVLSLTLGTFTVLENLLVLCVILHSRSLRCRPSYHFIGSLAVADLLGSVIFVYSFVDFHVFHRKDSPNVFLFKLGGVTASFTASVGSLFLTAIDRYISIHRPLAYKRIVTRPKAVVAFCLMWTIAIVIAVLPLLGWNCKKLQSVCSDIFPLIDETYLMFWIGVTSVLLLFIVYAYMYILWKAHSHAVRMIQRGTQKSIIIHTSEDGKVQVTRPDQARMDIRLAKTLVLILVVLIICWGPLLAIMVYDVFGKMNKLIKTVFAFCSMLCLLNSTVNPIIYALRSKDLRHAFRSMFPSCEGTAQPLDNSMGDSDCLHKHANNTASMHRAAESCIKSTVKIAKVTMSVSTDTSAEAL
Description: as §1

[4] = biological target: T1, human cannabinoid receptor type 1 (CB1); assay: cell-based or functional assay

T1 sequence (P21554 whole entry): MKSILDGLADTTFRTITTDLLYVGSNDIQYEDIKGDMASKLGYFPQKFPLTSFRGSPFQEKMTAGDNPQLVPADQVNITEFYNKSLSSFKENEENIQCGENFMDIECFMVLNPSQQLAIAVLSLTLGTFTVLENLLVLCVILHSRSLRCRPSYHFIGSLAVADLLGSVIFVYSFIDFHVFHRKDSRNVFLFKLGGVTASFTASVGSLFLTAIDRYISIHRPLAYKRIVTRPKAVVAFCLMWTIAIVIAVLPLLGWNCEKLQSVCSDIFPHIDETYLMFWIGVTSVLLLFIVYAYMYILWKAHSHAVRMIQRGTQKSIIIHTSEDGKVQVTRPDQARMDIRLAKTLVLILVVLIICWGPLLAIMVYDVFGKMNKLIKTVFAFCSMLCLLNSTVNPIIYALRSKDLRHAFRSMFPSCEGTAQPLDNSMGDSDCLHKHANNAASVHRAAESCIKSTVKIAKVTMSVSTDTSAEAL

| Binder | binding result [1] | EC50 [2] | binding result [3] | Mean P-ERK (% inhibition) [4] | Mean cAMP (% Amgen) [4] | P-ERK IC50 (nM) Data Set 1 [4] | P-ERK IC50 (nM) Data Set 2 [4] | cAMP EC50 (nM) Data Set 1 [4] | cAMP EC50 (nM) Data Set 2 [4] | cAMP EC50 (nM) Data Set 3 [4] |
| --- | --- | --- | --- | --- | --- | --- | --- | --- | --- | --- |
| M7-H8 humanized anti-CB1 antibody (antibody, human IgG1, kappa, L234A L235A, V domains shown) VH: QVQLVQSGAEVKKPGASVKLSCKASSYTFTRYWMNWVRQAPGQGLEWIGMIDPYDSETHYNQKFQGRATLTVDTSTSTAYMELSSLRSEDTAVYFCARSQPRYYAMDYWGQGTTVTVSS VL: DIQMTQSPSSLSASLGDRVTLTCRASQEISGFLSWLQLKPGKTIKRLIYAASSLDSGVPSRFSGSWSGTDYTLTISSLQPEDFADYYCLQYSSYPYTFGGGTKLEIKR | binds |  |  |  |  |  |  |  |  |  |
| M7-H10 humanized anti-CB1 antibody (antibody, human IgG1, kappa, L234A L235A, V domains shown) VH: QVQLVQSGAEVKKPGASVKVSCKASSYTFTRYWMNWVKQRPGEGLEWMGMIDPYDSETHYNQKFQGKVTMTVDKSSSTVYMELSSLRSEDTAVYFCARSQPRYYAMDYWGQGTTVTVSS VL: DIQMTQSPSSLSASLGDRVTLTCRASQEISGFLSWLQLKPGKTIKRLIYAASSLDSGVPSRFSGSWSGTDYTLTISSLQPEDFADYYCLQYSSYPYTFGGGTKLEIKR | binds |  |  |  |  |  |  |  |  |  |
| M7-H12 humanized anti-CB1 antibody (antibody, human IgG1, kappa, L234A L235A) heavy: not shown light: DIQMTQSPSSLSASVGDRVTLTCRASQEISGFLSWLQLKPGKAIKRLIYAASSLDSGVPSRFSGSWSGTDYTLTISSLQPEDFADYYCLQYSSYPYTFGGGTKLEIKRTVAAPSVFIFPPSDEQLKSGTASVVCLLNNFYPREAKVQWKVDNALQSGNSQESVTEQDSKDSTYSLSSTLTLSKADYEKHKVYACEVTHQGLSSPVTKSFNRGEC | binds |  |  |  |  |  |  |  |  |  |
| M7-H11 humanized anti-CB1 antibody (antibody, human IgG1, kappa, L234A L235A, V domains shown) VH: QVQLVQSGAEVKKPGASVKVSCKASSYTFTRYWMNWVRQAPGQGLEWMGIIDPYDSETSYAQKFQGRVTMTRDTSTSTVYMELSSLRSEDTAVYYCARSQPRYYAMDYWGQGTTVTVSS VL: DIQMTQSPSSLSASLGDRVTLTCRASQEISGFLSWLQLKPGKTIKRLIYAASSLDSGVPSRFSGSWSGTDYTLTISSLQPEDFADYYCLQYSSYPYTFGGGTKLEIKR | binds |  |  |  |  |  |  |  |  |  |
| M7-H9 humanized anti-CB1 antibody (antibody, human IgG1, kappa, L234A L235A, V domains shown) VH: QVQLVQSGAEVKKPGASVKVSCKASSYTFTRYWMNWVRQAPGQGLEWMGMIDPYDSETHYNQKFQGRVTMTRDTSTSTVYMELSSLRSEDTAVYYCARSQPRYYAMDYWGQGTTVTVSS VL: DIQMTQSPSSLSASLGDRVTLTCRASQEISGFLSWLQLKPGKTIKRLIYAASSLDSGVPSRFSGSWSGTDYTLTISSLQPEDFADYYCLQYSSYPYTFGGGTKLEIKR | binds |  |  |  |  |  |  |  |  |  |
| M7-H16 humanized anti-CB1 antibody (antibody, human IgG1, kappa, L234A L235A, V domains shown) VH: QVQLVQSGAEVKKPGASVKVSCKASSYTFTRYWMNWVRQAPGQGLEWMGIIDPYDSETSYAQKFQGRVTMTRDTSTSTVYMELSSLRSEDTAVYYCARSQPRYYAMDYWGQGTTVTVSS VL: DIQMTQSPSSLSASVGDRVTLTCRASQEISGFLSWLQLKPGKAIKRLIYAASSLDSGVPSRFSGSWSGTDYTLTISSLQPEDFADYYCLQYSSYPYTFGGGTKLEIKR | binds |  |  |  |  |  |  |  |  |  |
| M7-H15 humanized anti-CB1 antibody (antibody, human IgG1, kappa, L234A L235A, V domains shown) VH: QVQLVQSGAEVKKPGASVKVSCKASSYTFTRYWMNWVKQRPGEGLEWMGMIDPYDSETHYNQKFQGKVTMTVDKSSSTVYMELSSLRSEDTAVYFCARSQPRYYAMDYWGQGTTVTVSS VL: DIQMTQSPSSLSASVGDRVTLTCRASQEISGFLSWLQLKPGKAIKRLIYAASSLDSGVPSRFSGSWSGTDYTLTISSLQPEDFADYYCLQYSSYPYTFGGGTKLEIKR | binds |  |  |  |  |  |  |  |  |  |
| M7-H13 humanized anti-CB1 antibody (antibody, human IgG1, kappa, L234A L235A, V domains shown) VH: QVQLVQSGAEVKKPGASVKLSCKASSYTFTRYWMNWVRQAPGQGLEWIGMIDPYDSETHYNQKFQGRATLTVDTSTSTAYMELSSLRSEDTAVYFCARSQPRYYAMDYWGQGTTVTVSS VL: DIQMTQSPSSLSASVGDRVTLTCRASQEISGFLSWLQLKPGKAIKRLIYAASSLDSGVPSRFSGSWSGTDYTLTISSLQPEDFADYYCLQYSSYPYTFGGGTKLEIKR | binds |  |  |  |  |  |  |  |  |  |
| M7-H14 humanized anti-CB1 antibody (antibody, human IgG1, kappa, L234A L235A, V domains shown) VH: QVQLVQSGAEVKKPGASVKVSCKASSYTFTRYWMNWVRQAPGQGLEWMGMIDPYDSETHYNQKFQGRVTMTRDTSTSTVYMELSSLRSEDTAVYYCARSQPRYYAMDYWGQGTTVTVSS VL: DIQMTQSPSSLSASVGDRVTLTCRASQEISGFLSWLQLKPGKAIKRLIYAASSLDSGVPSRFSGSWSGTDYTLTISSLQPEDFADYYCLQYSSYPYTFGGGTKLEIKR | binds |  |  |  |  |  |  |  |  |  |
| M3 mouse anti-huCB-1 antibody (antibody, V domains shown) VH: QVQLQQSGPELVRPGVSVKISCKGSGYEFTDYALHWVKQSHAETLEWIGLITTYYGDTNYNQKFKGKATMTVDKSSSTAYMELARLTSEDSAIYYCARGGYYYGTDYRYFDVWGAGTTVTVSS VL: DILLTQSPAILSVSPGERVSFSCRASQSIGTNIHWYQQRPNGSPRLLIKYASESISGIPSRFSGSGSGSDFTLSINSVESEDIADYYCQQSITWPLTFGAGTKLELK |  | 61.6 nM | no binding (tested: 200 nM) | 59 % inhibition | 71 % Amgen | 296 nM | 534 nM | 290 nM | 290 nM | 330 nM |
| M1 mouse anti-huCB-1 antibody (antibody, V domains shown) VH: QVQLQQSGAELVRPGVSVKISCKGSGYTFTDHALHWVKQSQARSLEWIGIISTYYGDATYNQKFKGKATMTVDKSSSTAYMELARLTSEDSAFYYCARGGLYYGTNYRAMDYWGQGTSVTVSS VL: DIVMTQSQKFMSTSVGDRVSVTCKASQNVGSNVAWYQQKPGQSPKALIYSASYRYSGVPDRFTGSGSGTDFTLTISNVQSEDLAEYFCQQYNNYPFTFGSGTKLEIK |  | 15.7 nM | no binding (tested: 200 nM) | 68 % inhibition | 75 % Amgen | 163 nM | 165 nM | 43 nM | 170 nM | 150 nM |
| M2 mouse anti-huCB-1 antibody (antibody, V domains shown) VH: EVQLQQSGPELVKPGTSVKISCKASGYTFTDYNMHWVKLGKSLEWIGYFYPDDGGSGYNQKFKGKATLTIDKSSSTAYMELHSLTSEDSAVYYCARGYGNSWGTYWGQGTLVTVSA VL: EIVLTQSPTTMAASPGEKITITCSASSRISSNYLYWYQQKPGFSPKLLIYRTSNLASGVPARFSGSGSGTSYSLTIGTMEAEDVATYYCQQGSSIPYTFGGGTKLEIK |  | 34.7 nM |  | 59 % inhibition | 49 % Amgen | 219 nM | 211 nM | 380 nM | 340 nM | 270 nM |
| M6 mouse anti-huCB-1 antibody (antibody, V domains shown) VH: EVQLQQSGPELVKPGASVKISCKASGYTFTDYNLHWVKHGKSLEWIGYIYPYDGDTGYKQKFKGKATLTADKSSSTAYMELRSLTCEDSAVYYCARGYGNSWGAYWGQGTLVTVSA VL: EIVLTQSPTTMAASPGEKITITCSATSSISSNYLHWYQQKPGFSPKLLIYRTSNLASGVPARFSGSGSGTSYSLTIGTMEAEDVATYYCQQGSSIPYTFGGGTKLEIK |  | 43.5 nM |  | 42 % inhibition | 21 % Amgen | 144 nM | 300 nM | 310 nM | 290 nM | 640 nM |
| M4 mouse anti-huCB-1 antibody (antibody, V domains shown) VH: QVQLQQSGAELVRPGSSVKISCKASGYEFNYYWMNWVKQRPGQGLEWIGQIYPGDGDINYNGKFKGKATLTSDKSSSTVYMQLSSLTSEDSAVYFCSRSKGNPFAYWGQGTLVTVSA VL: DIQMTQTTSSLSASLGDSVTISCRASQGIRNYLNWYQQKPDGTVKLLIYYTSRLHSGVPPRFSGSGSGTDYSLTISNLEQEDLATYFCQQGNTLPYTFGGGTKLEIK |  | 19.2 nM | no binding (tested: 200 nM) | 70 % inhibition | 41 % Amgen | 97 nM | 890 nM | 180 nM | 320 nM | 430 nM |
